From US20150374394A1, “SONOLYSIS WITH BIODEGRADABLE NANOPARTICLES” (THE BOARD OF TRUSTEES OF THE UNIVERSITY OF ARKANSAS, priority 2012, published 2015)

Tested on: clots formed from pooled rabbit plasma with rabbit blood cells
Experiment: In vitro sonothrombolysis (STBL) of clots with MBs, CPDL, tPA and/or 450 nm StNPs, pulsed 1 MHz ultrasound
Conditions: pulsed 1 MHz ultrasound 15 min, in bovine calf serum, 0.5 mL/min; control ultrasound alone; 3 μm MBs, 0.1 mg/ml tPA, 0.06% w/V CPDL nanoemulsion
Protocol: FIG. 1 depicts a graph showing the potentiation of sonothrombolysis (STBL) efficacy by microbubbles (MBs) and/or a nanoemulsion of cyclopentadecanolide with or without tissue plasminogen activator (tPA). […] STBL was performed with fibrin-rich clots (see Example 2) using pulsed, 1 MHz ultrasound for 15 min. The MBs, tPA, StNPs etc. were suspended in bovine calf serum and introduced at a flow rate of 0.5 mL/min. STBL efficacy is reported as % clot lysis. Abbreviations: US=ultrasound; MBs=microbubbles; CPDL=cyclopentadecanolide; StNPs=starch nanoparticles; tPA=tissue plasminogen activator.
The clots used in these experiments were formed by mixing pooled rabbit plasma with rabbit blood cells (final volume equal to 2 mL; the volume of whole rabbit blood from which the cells were obtained), incubating this mixture for 24 h at 37° C. and then curing the formed clots for 24 h at 5° C. […] The StNPs were diluted to have an Optical Density reading at 530 nm (OD530) of 1.0. […] STBL efficacy was measured as the percent of the initial clot mass that was lost from the clot during the 15 min treatment time.

B1: tissue plasminogen activator (protein, UniProt P00750 36-562, looked up)
Tissue-type plasminogen …: SYQVICRDEKTQMIYQQHQSWLRPVLRSNRVEYCWCNSGRAQCHSVPVKSCSEPRCFNGGTCQQALYFSDFVCQCPEGFAGKCCEIDTRATCYEDQGISYRGTWSTAESGAECTNWNSSALAQKPYSGRRPDAIRLGLGNHNYCRNPDRDSKPWCYVFKAGKYSSEFCSTPACSEGNSDCYFGNGSAYRGTHSLTESGASCLPWNSMILIGKVYTAQNPSAQALGLGKHNYCRNPDGDAKPWCHVLKNRRLTWEYCDVPSCSTCGLRQYSQPQFRIKGGLFADIASHPWQAAIFAKHRRSPGERFLCGGILISSCWILSAAHCFQERFPPHHLTVILGRTYRVVPGEEEQKFEVEKYIVHKEFDDDTYDNDIALLQLKSDSSRCAQESSVVRTVCLPPADLQLPDWTECELSGYGKHEALSPFYSERLKEAHVRLYPSSRCTSQHLLNRTVTDNMLCAGDTRSGGPQANLHDACQGDSGGPLVCLNDGRMTLVGIISWGLGCGQKDVPGVYTKVTNYLDWIRDNMRP
notes: thrombolytic agent, used at 0.1 mg/ml
STBL efficacy (FIG. 1), in words: improved STBL efficacy
